Series [1] concerns the target T1, EH domain of γ‐synergin (EHγ, residues 279–388) (Homo sapiens, UniProt Q9UMZ2).
T1 construct: His-tag with TEV cleavage site (N, cleaved yes); made in house; host or cells: Escherichia coli BL21(DE3)
T1 sequence (Q9UMZ2 279-388): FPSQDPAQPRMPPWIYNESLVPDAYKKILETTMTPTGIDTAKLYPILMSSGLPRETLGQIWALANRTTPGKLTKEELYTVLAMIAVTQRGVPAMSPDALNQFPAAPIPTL
Put plainly: Isothermal titration calorimetry of SCAMP1 fragments and peptides with EHγ. As to conditions: ITC; for ∆H / ∆S / N (stoichiometry) / KD: 20 mM Tris, 100 mM NaCl, 2 mM CaCl2 pH 7.5, 20°C, one site binding model; for ∆H / ∆S / KD: n.b. = no binding; for N (stoichiometry) / KD: VP-ITC, 50–200 μM EHγ in cell, ligand 700–2000 μM. Format: binding. The protocol: ITC measurements were performed on a VP‐ITC instruments (GE Healthcare, Chalfont St. Giles, UK). The calorimetric cell (with a total cell volume of 1,400 μl) contained 50–200 μM EHγ in 20 mM Tris, 100 mM NaCl, 2 mM CaCl2 pH 7.5. SCAMP1 fragments and peptides A, B, C at 700–2000 μM were titrated into the cell at 20°C. The heat generated after each ligand injection was obtained by integration of the calorimetric signal. Resulting binding isotherms were analyzed according to an one site binding model using the Origin software (OriginLab Corp., Northampton, MA, USA).

Series [2] addresses T1, EH domain of γ‐synergin (EHγ, residues 279–388). Put plainly: Analytical size exclusion chromatography of EHγ–SCAMP1″ complex. The format is binding. The conditions noted are these: complex compared with isolated EHγ and SCAMP1″; 100 μM EHγ and/or 100 μM SCAMP 1–52, Superdex 200 5/150 GL, 20 mM Tris pH 7.5, 100 mM NaCl, 2 mM CaCl2, 4°C. The protocol: The quality and oligomeric state of the EHγ construct was assessed on an analytical gel filtration column (Superdex 75 5/150 GL, GE Healthcare). To guarantee reproducible and reliable gel filtration runs, an ÄKTAmicro™ (GE Healthcare) was coupled to an auto sampler, which automatically injected with high‐precision 25 μl of protein sample.[36] Analytical gel filtration runs were performed in duplicates in the cold room at a flow rate of 0.2 ml/min in gel filtration buffer (20 mM Tris pH 7.5, 100 mM NaCl, 2 mM CaCl2). The used EHγ construct was injected spanning a concentration range of 10–1,000 μM. The column has been calibrated with protein standards ranging from 6.5 to 75 kDa. Interactions between EHγ and the SCAMP 1–52 fragment were also probed using this analytical gel filtration setup; the proteins alone or the potential complex (at concentrations of 100 μM EHγ and/or 100 μM SCAMP 1–52) were applied to a Superdex™ 200 5/150 GL analytical gel filtration column and analyzed. Analytical gel filtration runs were performed at 4°C at a flow rate of 0.2 ml/min in the gel filtration buffer.
(Size exclusion chromatography separates by hydrodynamic size, large species first.)

Series [3] has as its target T2, EH domain of human γ-synergin, longest construct (residues 279–388) (human, UniProt Q9UMZ2 279-388).
T2 chain: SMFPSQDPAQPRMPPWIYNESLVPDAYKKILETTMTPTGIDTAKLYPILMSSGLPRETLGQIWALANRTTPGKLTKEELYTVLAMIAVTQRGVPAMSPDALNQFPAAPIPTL
Put plainly: ITC. A general note: Isothermal titration calorimetry measures the heat released or taken up as one component is titrated into another.

In series [4] the target is T3, EH domain of human γ-synergin, longest construct (residues 279–388) (human, UniProt Q9UMZ2 279-388).
T3 construct: two additional residues (Serine-Methionine) left at the N-terminus by the vector pNIC28-Bsa4 after TEV cleavage of the tag; γ-synergin, human, residues 279-388 (EH domain with N- and C-terminal structured extensions); also called EHγ; EHγ domain; source: E. coli BL21(DE3), purified (Ni-IMAC, TEV cleavage, SEC on Superdex 75); 15N-labelled in M9 medium for NMR; not shown: His tag, N-terminal, …
T3 sequence: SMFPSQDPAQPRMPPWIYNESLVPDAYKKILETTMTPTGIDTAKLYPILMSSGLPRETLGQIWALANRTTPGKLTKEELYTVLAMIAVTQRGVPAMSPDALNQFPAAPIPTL
Put plainly: ITC; EHγ 50–200 μM in the cell, SCAMP1 fragments and peptides A, B, C at 700–2000 μM titrated in; 20 mM Tris, 100 mM NaCl, 2 mM CaCl2 pH 7.5, 20°C; one site binding model. As to conditions: both partners purified.

For series [5], the target named is T3, EH domain of human γ-synergin, longest …. In words: NMR titration; unlabelled peptide added stepwise to 15N-labelled EHγ, 1H-15N HSQC, up to n = 2 (Pep A, C) and n = 3.2 (Pep B); 20 mM Tris pH 7.5, 100 mM NaCl, 2 mM CaCl2, 10% D2O, 298 K; joint fit of I324, L325, W339 to a one site binding model. As to conditions: both partners purified.

We go through eleven molecules from article PMC8927860, “Completing the family of human Eps15 homology domains: Solution structure of the internal Eps15 homology domain of γ‐synergin” (Protein Science : A Publication of the Protein Society, 2022).

“Also recorded” adds a separate entry of the source. Ends that are not written are not given here.

Take ADPDLNNPFKDPSVTY-NH2 [Peptide B]: in series [1], the “∆H” value is -12.0 ± 1.5 kcal/mol, the “∆S” value is -23.3 cal/mol/deg and the “N (stoichiometry)” value came to 1.1 ± 0.2.

With GLDEYNPFSDSRT-NH2 [Peptide C], in series [1], the “∆H” value is on record as -22.9 ± 2.7 kcal/mol, the “∆S” value was -59.8 cal/mol/deg and the “N (stoichiometry)” value was 1.0 ± 0.1.

“SCAMP1″: NPF repeat rich fragment of SCAMP1 possessing three NPF-motifs (residues 1–52) (MSDFDSNPFADPDLNNPFKDPSVTQVTRNVPPGLDEYNPFSDSRTPPPGGVK; UniProt O15126 1-52, looked up, fragment)”: in series [2], the “complex formation by SEC (elution)” value was “lower retention volume”. Further, in series [1], the “N (stoichiometry)” value is given as 0.33 ± 0.01. For the same molecule, the “enthalpic/entropic contribution to binding (in words)” value in series [1] (SCAMP1″ (three NPF-motifs) compared to sum of / individual peptides A, B, C) is on record as “no enthalpic gain; also recorded: largely reduced entropic penalty”.

Consider SDFDSNPFADPDLNY-NH2 [Peptide A], for which, in series [1], the “∆H” value is listed as -21.1 ± 2.4 kcal/mol, the “∆S” value is listed as -55.2 cal/mol/deg and the “N (stoichiometry)” value is recorded as 1.2 ± 0.1.

B1: SCAMP1″, NPF repeat rich N-terminal fragment of secretory carrier membrane protein 1 (residues 1–52) (domain or fragment, human (hORFeome collection))
chain: SMMSDFDSNPFADPDLNNPFKDPSVTQVTRNVPPGLDEYNPFSDSRTPPPGGVK
notes: two additional residues (Serine-Methionine) left by the vector pNIC28-Bsa4 after TEV cleavage (same cloning procedure as for EHγ); secretory carrier membrane protein 1 (SCAMP1), residues 1-52, with three NPF repeats; gene from the hORFeome collection; also called SCAMP 1–52 fragment; NPF-repeats from the N-terminal domain of SCAMP1; source: E. coli BL21(DE3), purified (Ni-IMAC, TEV cleavage, …)
In the case of B1, the Kd in series [3] was 9.9 µM. Also, the binding result in series [4] is “binds”.

B2: SCAMP1′: coiled coil domain of N-terminal SCAMP1, devoid of NPF-repeats (residues 65–130) (protein, UniProt O15126 65-130, looked up, fragment)
chain: KPTEEHPAYTQIAKEHALAQAELLKRQEELERKAAELDRREREMQNLSQHGRKNNWPPLPSNFPVG
In the case of B2, in series [1], the “N (stoichiometry)” value is given as “n.b” and the KD entry is given as “n.b”.

On to ADPDLNNPFKDPSVTY-NH2 [peptide B, SCAMP1 derived peptide with a single NPF-repeat], for which the Kd in series [3] amounted to 140 µM; in series [5], 120 ± 30 µM.

With SDFDSNPFADPDLNY-NH2 [peptide A, SCAMP1 derived peptide with a single NPF-repeat], the Kd in series [3] worked out at 250 µM; in series [5] it was 110 ± 10 µM.

B3: SCAMP1 (protein)
chain: MSDFDSNPFADPDLNNPFKDPSVTQVTRNVPPGLDEYNPFSDSRTPPPGGVKMPNVPNTQPAIMKPTEEHPAYTQIAKEHALAQAELLKRQEELERKAAELDRREREMQNLSQHGRKNNWPPLPSNFPVG
modifications: N-terminal cytosolic SCAMP1 construct, residues 1-130 (NPF repeats plus coiled coil, no TM helices); Ser-Met left at the N-terminus after TEV cleavage is omitted; human inferred from the hORFeome source
With B3, the Kd in series [3] stood at 9 µM.

B4: SCAMP1: N-terminal SCAMP1 construct devoid of transmembrane helices, comprising NPF repeat rich motifs and coiled coil (residues 1–130) (protein, UniProt O15126 1-130, looked up, fragment)
chain: MSDFDSNPFADPDLNNPFKDPSVTQVTRNVPPGLDEYNPFSDSRTPPPGGVKMPNVPNTQPAIMKPTEEHPAYTQIAKEHALAQAELLKRQEELERKAAELDRREREMQNLSQHGRKNNWPPLPSNFPVG
For B4, in series [1], the “∆H” value was -7.5 ± 1.1 kcal/mol, the “∆S” value is recorded as -2.3 cal/mol/deg and the “N (stoichiometry)” value worked out at 0.38 ± 0.04. Further, in series [1] (listed as SCAMP1’), the “∆H” value is on record as “n.b”, the “∆S” value is reported as “n.b”, the “N (stoichiometry)” value is given as “n.b” and the KD entry was “n.b”. Also, in series [1] (listed as SCAMP1’’), the “∆H” value is on record as -41.3 ± 1.3 kcal/mol, the “∆S” value was -118.0 cal/mol/deg, the “N (stoichiometry)” value stood at 0.33 ± 0.01 and the KD amounted to 9.9 ± 0.4 µM.

Take GLDEYNPFSDSRT-NH2 [peptide C, SCAMP1 derived peptide with a single NPF-repeat]: the dissociation constant Kd worked out at 90 µM in series [3] and 30 ± 20 µM in series [5].

As usually defined, the Kd is the concentration at which binding is half-saturated. As usually defined, the KD is a measure of binding affinity in units of concentration.
